{
  "source": "patent US12616740B2",
  "about": "“Methods of using a GIP/GLP1 co-agonist for therapy” (ELI LILLY AND COMPANY, priority 2018, dated 2026)",
  "format_in_all_cases": "in vivo, human",
  "key": {"[1]": {"tested_on": "patients with T2DM who have inadequate glycemic control", "assay": "Phase 2 clinical study NCT03131687 (26 weeks): patients reaching HbA1c target", "conditions": "dulaglutide 1.5 mg once weekly", "procedure": "(§1) Clinical Study (NCT03131687) Supporting Maintenance Dose Embodiments A 6-month (26-week) Phase 2 double-blind clinical study is designed to evaluate the safety, efficacy, and PK/PD of 4 dose levels (1 mg, 5 mg, 10 mg and 15 mg respectively) of tirzepatide once weekly by subcutaneous injection compared with dulaglutide 1.5 mg. once weekly (QW) and placebo QW in patients with T2DM who have inadequate glycemic control with diet and exercise with or without a stable dose of metformin. Tirzepatide dose is up-titrated to the maintenance dose using the following weekly dose increments:\n(§2) The study also has a 4-week follow up period. In addition to safety and efficacy for treating T2DM, efficacy endpoints include the effect of tirzepatide on HbA1c, FBG, body weight, lipids, and waist circumference compared with placebo and with dulaglutide 1.5 mg. The study also evaluates the effect of tirzepatide on GI tolerability, hypoglycemia, hypersensitivity reactions, and pancreatic safety, as well as the development of treatment-emergent anti-drug antibodies. Model-based dose response analyses are performed to predict potential for significant HbA1c lowering and weight loss in longer studies. Statistical Analyses: Efficacy: The primary efficacy outcome of HbA1c change from baseline to the 26-week endpoint is analyzed using a Bayesian dose-response model. Analyses are performed on the intention to treat population (mITT) analysis set. Supportive analysis of the primary efficacy outcome for the mITT dataset are the model for post-baseline measures (MMRM) with body mass index (BMI) (<30 kg/m^2, ≥30 kg/m^2), metformin use, treatment, visit, and treatment-by-visit interaction as fixed effects, baseline HbA1c as a covariate, and patient as a random effect. The mean weight change from baseline at 12 and 26 weeks, along with the mean change from baseline of HbA1c at 12 weeks, is analyzed using similar dose-response models as the primary analyses. The percentages of patients with ≥5% or ≥10% body weight loss, reaching the HbA1c target of ≤6.5% or ≤7.0% at 26 weeks, or requiring rescue therapy are analyzed using logistic regression with fixed effects of treatment and strata, and baseline as a covariate. The changes from baseline in FBG (fasting blood glucose), SMBG (self-monitored blood glucose) levels, waist circumference, and mean percentage change in lipids from baseline to 12 and 26 weeks are analyzed using a similar MMRM to the one used for the primary analyses. Table Abbreviations: Dula 1.5 mg=dulaglutide 1.5 mg once weekly; LY means tirzepatide, and LY 1 mg=tirzepatide 1 mg once weekly; LY 5 mg=5 mg once weekly; LY 10 mg=escalation dose group tirzepatide once weekly with highest dose of 10 mg; LY 15 mg=escalation dose group of tirzepatide once weekly with highest dose 15 mg; LOCF=last observation-carried-forward; N=number of patients; pbo=placebo; Week 26=mITT on-treatment data at Week 26 excluding data after study drug discontinuation or rescue drug initiation; mITT=modified intent-to-treat; SD=standard deviation. For Table 4, n=number of patients in the population with baseline and post-baseline value at the specified time point. For Table 6, LY10 mg=escalation dose group tirzepatide, once weekly with highest dose of 10 mg; escalation dose: (5 mg weeks 0 and 1), LY15 mg=escalation dose group tirzepatide, once weekly with highest dose of 15 mg; escalation dose: (5 mg weeks 0 and 1; 10 mg weeks 2 to 5); N=number of patients in specified group, m=number of patients who experienced new event during interval, FolUp=follow up, T/Wk=Time range, (week) and %=means percent patients spending at least some time in treatment group who experienced new event during interval. For Table 7, n is the number of patients with events meeting the criteria; N is number of patients in the population; % is percent of patients in treatment group experiencing the event."}, "[2]": {"tested_on": "patients with T2DM who have inadequate glycemic control", "assay": "NCT03131687: mean fasting glucose at Week 26", "design": "Mean change from baseline, fasting glucose: unit not given here", "conditions": "dulaglutide 1.5 mg once weekly, N 46", "procedure": "as §1, §2"}, "[3]": {"assay": "NCT03131687: weight loss at Week 26", "conditions": "dulaglutide 1.5 mg once weekly", "procedure": "as §1, §2"}, "[4]": {"assay": "NCT03131687: nausea, vomiting and diarrhea, new events per interval", "conditions": "dulaglutide 1.5 mg once weekly, N = 54", "procedure": "as §1, §2"}, "[5]": {"assay": "NCT03131687: decrease appetite (reported event)", "conditions": "dulaglutide 1.5 mg once weekly, N = 54", "procedure": "as §1, §2"}, "[6]": {"conditions": "second line, analysis set not given (not LOCF)"}},
  "data": [
    {"substance": "dulaglutide [reference compound]", "values": [
      {"measurement": "% of Patients Reaching HbA1c Target <5.7%", "setting": "[1]; LOCF Week 26 (N = 54)", "value": 1.9, "unit": "%"},
      {"measurement": "% of Patients Reaching HbA1c Target <6%", "setting": "[1]; LOCF Week 26 (N = 54)", "value": 11.1, "unit": "%"},
      {"measurement": "odds ratio vs. placebo, Patients Reaching HbA1c Target <5.7%", "setting": "[1]; LOCF Week 26 (N = 54)", "value": 1.0},
      {"measurement": "odds ratio vs. placebo, Patients Reaching HbA1c Target <6%", "setting": "[1]; LOCF Week 26 (N = 54)", "value": 4.5},
      {"measurement": "% of Patients Reaching HbA1c Target <5.7%", "setting": "[1]; mITT Week 26 (N = 47)", "value": 2.1, "unit": "%"},
      {"measurement": "% of Patients Reaching HbA1c Target <6%", "setting": "[1]; mITT Week 26 (N = 47)", "value": 12.8, "unit": "%"},
      {"measurement": "odds ratio vs. placebo, Patients Reaching HbA1c Target <5.7%", "setting": "[1]; mITT Week 26 (N = 47)", "value": 0.89},
      {"measurement": "odds ratio vs. placebo, Patients Reaching HbA1c Target <6%", "setting": "[1]; mITT Week 26 (N = 47)", "value": 4.5},
      {"measurement": "Mean change from baseline, fasting glucose", "setting": "[2]", "value": "−34.9"},
      {"measurement": "Mean glucose value (fasting)", "setting": "[2]", "value": 140.5, "unit": "mg/dL"},
      {"measurement": "% of Patients Achieving Weight loss ≥10%", "setting": "[3]; LOCF", "value": 9.3, "unit": "%"},
      {"measurement": "odds ratio vs. placebo, Weight loss ≥10%", "setting": "[3]; LOCF", "value": 11.7},
      {"measurement": "% of Patients Achieving Weight loss ≥10%", "setting": "[3]; [6]", "value": 10.6, "unit": "%"},
      {"measurement": "% of Patients Achieving Weight loss ≥15%", "setting": "[3]; [6]", "value": 2.1, "unit": "%"},
      {"measurement": "odds ratio vs. placebo, Weight loss ≥10%", "setting": "[3]; [6]", "value": 10.4},
      {"measurement": "Nausea Vomiting and Diarrhea: % patients who experienced new event during interval", "setting": "[4]; Fol Up (follow up)", "value": 5.9, "unit": "%"},
      {"measurement": "Nausea Vomiting and Diarrhea: m, number of patients who experienced new event during interval", "setting": "[4]; Fol Up (follow up)", "value": 3},
      {"measurement": "Nausea Vomiting and Diarrhea: % patients who experienced new event during interval", "setting": "[4]; T/Wk 0", "value": 22.2, "unit": "%"},
      {"measurement": "Nausea Vomiting and Diarrhea: m, number of patients who experienced new event during interval", "setting": "[4]; T/Wk 0", "value": 12},
      {"measurement": "Nausea Vomiting and Diarrhea: % patients who experienced new event during interval", "setting": "[4]; T/Wk 1", "value": 3.7, "unit": "%"},
      {"measurement": "Nausea Vomiting and Diarrhea: m, number of patients who experienced new event during interval", "setting": "[4]; T/Wk 1", "value": 2},
      {"measurement": "Nausea Vomiting and Diarrhea: % patients who experienced new event during interval", "setting": "[4]; T/Wk 2", "value": 0.0, "unit": "%"},
      {"measurement": "Nausea Vomiting and Diarrhea: m, number of patients who experienced new event during interval", "setting": "[4]; T/Wk 2", "value": 0},
      {"measurement": "Nausea Vomiting and Diarrhea: % patients who experienced new event during interval", "setting": "[4]; T/Wk 3", "value": 3.8, "unit": "%"},
      {"measurement": "Nausea Vomiting and Diarrhea: m, number of patients who experienced new event during interval", "setting": "[4]; T/Wk 3", "value": 2},
      {"measurement": "Nausea Vomiting and Diarrhea: % patients who experienced new event during interval", "setting": "[4]; T/Wk 4", "value": 1.9, "unit": "%"},
      {"measurement": "Nausea Vomiting and Diarrhea: m, number of patients who experienced new event during interval", "setting": "[4]; T/Wk 4", "value": 1},
      {"measurement": "Nausea Vomiting and Diarrhea: % patients who experienced new event during interval", "setting": "[4]; T/Wk 5", "value": 0.0, "unit": "%"},
      {"measurement": "Nausea Vomiting and Diarrhea: m, number of patients who experienced new event during interval", "setting": "[4]; T/Wk 5", "value": 0},
      {"measurement": "Nausea Vomiting and Diarrhea: % patients who experienced new event during interval", "setting": "[4]; T/Wk 6", "value": 0.0, "unit": "%"},
      {"measurement": "Nausea Vomiting and Diarrhea: m, number of patients who experienced new event during interval", "setting": "[4]; T/Wk 6", "value": 0},
      {"measurement": "Nausea Vomiting and Diarrhea: % patients who experienced new event during interval", "setting": "[4]; T/Wk 7", "value": 1.9, "unit": "%"},
      {"measurement": "Nausea Vomiting and Diarrhea: m, number of patients who experienced new event during interval", "setting": "[4]; T/Wk 7", "value": 1},
      {"measurement": "Nausea Vomiting and Diarrhea: % patients who experienced new event during interval", "setting": "[4]; T/Wk 8", "value": 0.0, "unit": "%"},
      {"measurement": "Nausea Vomiting and Diarrhea: m, number of patients who experienced new event during interval", "setting": "[4]; T/Wk 8", "value": 0},
      {"measurement": "Nausea Vomiting and Diarrhea: % patients who experienced new event during interval", "setting": "[4]; T/Wk 9", "value": 1.9, "unit": "%"},
      {"measurement": "Nausea Vomiting and Diarrhea: m, number of patients who experienced new event during interval", "setting": "[4]; T/Wk 9", "value": 1},
      {"measurement": "Nausea Vomiting and Diarrhea: % patients who experienced new event during interval", "setting": "[4]; T/Wk 10", "value": 0.0, "unit": "%"},
      {"measurement": "Nausea Vomiting and Diarrhea: m, number of patients who experienced new event during interval", "setting": "[4]; T/Wk 10", "value": 0},
      {"measurement": "Nausea Vomiting and Diarrhea: % patients who experienced new event during interval", "setting": "[4]; T/Wk 11", "value": 0.0, "unit": "%"},
      {"measurement": "Nausea Vomiting and Diarrhea: m, number of patients who experienced new event during interval", "setting": "[4]; T/Wk 11", "value": 0},
      {"measurement": "Nausea Vomiting and Diarrhea: % patients who experienced new event during interval", "setting": "[4]; T/Wk 12", "value": 2.0, "unit": "%"},
      {"measurement": "Nausea Vomiting and Diarrhea: m, number of patients who experienced new event during interval", "setting": "[4]; T/Wk 12", "value": 1},
      {"measurement": "Nausea Vomiting and Diarrhea: % patients who experienced new event during interval", "setting": "[4]; T/Wk >12 < 16", "value": 3.9, "unit": "%"},
      {"measurement": "Nausea Vomiting and Diarrhea: m, number of patients who experienced new event during interval", "setting": "[4]; T/Wk >12 < 16", "value": 2},
      {"measurement": "Nausea Vomiting and Diarrhea: % patients who experienced new event during interval", "setting": "[4]; T/Wk >16 ≤ 20", "value": 2.0, "unit": "%"},
      {"measurement": "Nausea Vomiting and Diarrhea: m, number of patients who experienced new event during interval", "setting": "[4]; T/Wk >16 ≤ 20", "value": 1},
      {"measurement": "Nausea Vomiting and Diarrhea: % patients who experienced new event during interval", "setting": "[4]; T/Wk >20", "value": 7.8, "unit": "%"},
      {"measurement": "Nausea Vomiting and Diarrhea: m, number of patients who experienced new event during interval", "setting": "[4]; T/Wk >20", "value": 4},
      {"measurement": "Decrease Appetite (reported): n, number of patients with events", "setting": "[5]", "value": "n = 3;"},
      {"measurement": "Decrease Appetite (reported): percent of patients in treatment group experiencing the event", "setting": "[5]", "value": 5.6, "unit": "%"}
    ]}
  ]
}
